# Reference: US9273304B2, “Inactivation method” (Thermo Fisher Scientific Baltics UAB, priority 2006, dated 2016)
# B1: Pfu DNA polymerase modified with N-etoxycarbonyl-2,3-dimethylmaleinimide: Native Pfu DNA polymerase reversibly inactivated with N-ethoxycarbonyl-2,3-dimethylmaleinimide, molar ratios 1/200 and 1/800 (protein, UniProt P61875 1-775, looked up)
# DNA polymerase: MILDVDYITEEGKPVIRLFKKENGKFKIEHDRTFRPYIYALLRDDSKIEEVKKITGERHGKIVRIVDVEKVEKKFLGKPITVWKLYLEHPQDVPTIREKVREHPAVVDIFEYDIPFAKRYLIDKGLIPMEGEEELKILAFDIETLYHEGEEFGKGPIIMISYADENEAKVITWKNIDLPYVEVVSSEREMIKRFLRIIREKDPDIIVTYNGDSFDFPYLAKRAEKLGIKLTIGRDGSEPKMQRIGDMTAVEVKGRIHFDLYHVITRTINLPTYTLEAVYEAIFGKPKEKVYADEIAKAWESGENLERVAKYSMEDAKATYELGKEFLPMEIQLSRLVGQPLWDVSRSSTGNLVEWFLLRKAYERNEVAPNKPSEEEYQRRLRESYTGGFVKEPEKGLWENIVYLDFRALYPSIIITHNVSPDTLNLEGCKNYDIAPQVGHKFCKDIPGFIPSLLGHLLEERQKIKTKMKETQDPIEKILLDYRQKAIKLLANSFYGYYGYAKARWYCKECAESVTAWGRKYIELVWKELEEKFGFKVLYIDTDGLYATIPGGESEEIKKKALEFVKYINSKLPGLLELEYEGFYKRGFFVTKKRYAVIDEEGKVITRGLEIVRRDWSEIAKETQARVLETILKHGDVEEAVRIVKEVIQKLANYEIPPEKLAIYEQITRPLHEYKAIGPHVAVAKKLAAKGVKIKPGMVIGYIVLRGDGPISNRAILAEEYDPKKHKYDAEYYIENQVLPAVLRILEGFGYRKEDLRYQKTRQVGLTSWLNIKKS
# modifications: modified with dimethylmaleinimide reagent
# Assays:
# Taq DNA polymerase = Taq DNA polymerase (Thermus aquaticus, UniProt P19821); assay: Polymerase activity assay: incorporation of [3H]-dTTP into the polynucleotide adsorbed on DE-81 in 30 min at 70° C.; assay type: biochemical; conditions: aqueous solution
# Chain of Taq DNA polymerase (P19821 whole entry): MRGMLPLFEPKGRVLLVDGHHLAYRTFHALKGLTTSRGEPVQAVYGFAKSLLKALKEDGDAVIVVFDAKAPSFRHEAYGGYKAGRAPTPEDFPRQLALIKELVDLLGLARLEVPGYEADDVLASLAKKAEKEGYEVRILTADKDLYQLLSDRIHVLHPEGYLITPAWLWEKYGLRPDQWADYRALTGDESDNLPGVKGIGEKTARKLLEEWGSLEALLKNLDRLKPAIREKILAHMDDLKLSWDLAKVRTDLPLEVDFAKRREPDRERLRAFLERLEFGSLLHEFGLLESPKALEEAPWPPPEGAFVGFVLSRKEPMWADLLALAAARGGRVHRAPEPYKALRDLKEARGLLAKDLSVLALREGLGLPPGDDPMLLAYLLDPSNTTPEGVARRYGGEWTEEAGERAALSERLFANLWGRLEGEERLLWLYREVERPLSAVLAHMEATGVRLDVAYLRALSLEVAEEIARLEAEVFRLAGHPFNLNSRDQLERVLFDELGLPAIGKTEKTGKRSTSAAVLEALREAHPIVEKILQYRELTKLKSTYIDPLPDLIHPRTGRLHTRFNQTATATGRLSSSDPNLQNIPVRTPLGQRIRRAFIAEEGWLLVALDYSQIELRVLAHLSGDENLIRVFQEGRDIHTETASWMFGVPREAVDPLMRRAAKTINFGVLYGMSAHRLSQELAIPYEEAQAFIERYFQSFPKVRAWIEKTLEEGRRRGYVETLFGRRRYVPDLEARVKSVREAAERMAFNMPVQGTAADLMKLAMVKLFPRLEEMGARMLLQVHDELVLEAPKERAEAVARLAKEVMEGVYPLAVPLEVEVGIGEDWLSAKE
# Protocol: The measure of the enzyme activity was incorporation of [^3H]-dTTP into polynucleotide fraction. One unit of polymerase activity is defined as the enzyme amount which incorporates 10 nmoles of deoxyribonucleotides into the polynucleotide adsorbed on DE-81 in 30 min at 70° C.
# For activity assays, Taq DNA polymerase was diluted up to 4 u/ml with the dilution buffer of the following composition: 20 mM Tris-HCl (pH 8.8 at 25° C.), 1 mM EDTA, 1 mM DTT, and BSA (0.1 mg/ml). Reactions were carried out at 70° C. for 30 min with 5 μl of the diluted enzyme in 50 μl of the reaction buffer of the following composition: 67 mM Tris-HCl (pH 8.8 at 25° C.), 50 mM NaCl, 6.7 mM MgCl2, 1 mM DTT, and BSA (0.1 mg/ml). The reaction buffer was supplemented with 0.2 mM dNTP, [3H]-dTTP (0.4 MBq/ml) and 0.75 mM activated DNA from calf thymus.
# Activity of the modified enzymes was measured either with the pre-incubation step, or without it, for 10 min at 95° C. in the pre-heating buffer of the following composition: 20 mM Tris-HCl (pH 8.25 at 25° C.), 100 mM KCl, 2 mM MgCl2, 0.5% Tween 20, 0.5% Nonidet P40, and 16% glycerol.
# (§1) Aliquots (35 μl) of the enzyme solution were mixed with 2.25 μl aliquots of the N-ethoxycarbonyl-2,3-dimethylmaleinimide solutions described above resulting in the following molar ratios of Taq DNA polymerase to N-ethoxycarbonyl-2,3-dimethylmaleinimide: 1/1280 1/640, 1/320, 1/160, 1/110, 1/80, 1/40. The mixtures were incubated for 20 hours at 4° C. to modify the Taq DNA polymerase. Control samples, in which the enzyme was left unmodified (e.g., the ratio was 1/0), were obtained by mixing the Taq DNA polymerase with a 2.25 μl aliquot of DMF. These control samples were incubated under the same conditions as the modified ones.
# The samples of the unmodified Taq DNA polymerase and the modified Taq DNA polymerases were diluted 250-fold in the pre-heating buffer (see Example 2) and activities of the modified enzyme were measured both before heat-reactivation and after it, as described in the Example 2. Activities of both inactivated and heat-reactivated DNA polymerases were determined as described in the Example 2, and the data were normalized to activity of the unmodified Taq DNA polymerase
# Aliquots (20.6 μl) of the diluted enzyme solution were mixed with 1 μl of N-isobutoxycarbonyl-2,3-dimethylmaleinimide solutions described above resulting in different molar ratios of Taq DNA polymerase to N-isobutoxycarbonyl-2,3-dimethylmaleinimide (1/320, 1/160, 1/80 and 1/40). The mixtures were incubated 20 hours at 4° C. to modify the Taq DNA polymerase. Control samples, in which the enzyme was left unmodified (e.g., the ratio was 1/0), were obtained by mixing the Taq DNA polymerase with a 1 μl aliquot of DMF. These control samples were incubated under the same conditions as the modified ones. The heat-reactivation of the modified enzymes was performed as described in the Example 3.
# Pfu DNA polymerase = molecular target: T1, Pfu DNA polymerase (Pyrococcus furiosus, UniProt P61875); assay: Polymerase activity assay: incorporation of [3H]-dTTP into the polynucleotide adsorbed on DE-81 in 30 min at 50° C. or 72° C.; assay type: biochemical; conditions: aqueous solution
# T1 construct: Native Pfu DNA polymerase was used at initial concentration of 1.065 mg/ml
# T1 sequence (P61875 1-775): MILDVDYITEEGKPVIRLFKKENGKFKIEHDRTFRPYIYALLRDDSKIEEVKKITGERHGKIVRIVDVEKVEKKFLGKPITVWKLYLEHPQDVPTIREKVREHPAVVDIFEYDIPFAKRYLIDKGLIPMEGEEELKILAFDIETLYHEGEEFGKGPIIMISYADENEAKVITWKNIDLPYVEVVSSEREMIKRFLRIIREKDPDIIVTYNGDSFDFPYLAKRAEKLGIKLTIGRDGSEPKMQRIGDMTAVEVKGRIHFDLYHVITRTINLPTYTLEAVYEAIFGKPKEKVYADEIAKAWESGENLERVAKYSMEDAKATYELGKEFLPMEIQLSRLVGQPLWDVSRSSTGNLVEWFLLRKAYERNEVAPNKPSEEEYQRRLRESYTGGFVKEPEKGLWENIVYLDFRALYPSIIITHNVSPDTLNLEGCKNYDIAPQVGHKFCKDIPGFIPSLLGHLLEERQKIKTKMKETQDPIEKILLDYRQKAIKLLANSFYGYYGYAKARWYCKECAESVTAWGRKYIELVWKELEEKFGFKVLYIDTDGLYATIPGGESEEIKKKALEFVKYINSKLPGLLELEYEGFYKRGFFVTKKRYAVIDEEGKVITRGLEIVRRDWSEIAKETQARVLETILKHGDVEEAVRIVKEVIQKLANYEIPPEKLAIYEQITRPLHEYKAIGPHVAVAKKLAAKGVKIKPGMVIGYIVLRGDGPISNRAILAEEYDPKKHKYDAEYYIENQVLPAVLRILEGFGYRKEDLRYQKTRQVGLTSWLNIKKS
# Protocol: as §1, with “A set of N-ethoxycarbonyl-2,3-dimethylmaleinimide solutions (72 mM, 18 mM) was prepared by serial dilutions of the 720 mM stock in N,N dimethylformamide (DMF). Aliquots” for “Aliquots”, “(25” for “(35”, “1” for “2.25”, “Pfu” for “Taq”, “1/800, 1/200.” for “1/1280 1/640, 1/320, 1/160, 1/110, 1/80, 1/40.”
# The samples of the unmodified Pfu DNA polymerase and the modified Pfu DNA polymerases were diluted in the pre-heating buffer (see Example 2) either 9-fold for measurements at 50° C., or 24-fold for measurements at 72° C. (see Example 2). Activities of the modified enzymes were measured either with the pre-incubation step, or without it, for 10 min at 95° C.
# For activity assays, Pfu DNA polymerase was diluted up to 11 u/ml (91 u/ml for measurements at 50° C.) in the dilution buffer (see Example 2). Reactions were carried out either at 50° C., or at 72° C. for 30 min. Aliquots (5 μl) of the diluted enzyme were added to 50 μl of the reaction buffer of the following composition: 20 mM Tris-HCl (pH 8.8 at 25° C.), 10 mM (NH4)2SO4, 10 mM KCl, 2 mM MgCl2, 0.1% Triton X-100, and BSA (0.1 mg/ml) supplemented with, 0.2 mM dNTP, [3H]-dTTP (0.4 MBq/ml) and 0.75 mM activated DNA from calf thymus.
# [1] = molar ratio Taq DNA polymerase/N-iso-butoxycarbonyl-2,3-dimethylmaleinimide 1/40
# [2] = molar ratio Taq DNA polymerase/N-iso-butoxycarbonyl-2,3-dimethylmaleinimide 1/80
# [3] = molar ratio Taq DNA polymerase/N-iso-butoxycarbonyl-2,3-dimethylmaleinimide 1/160
# [4] = molar ratio Taq DNA polymerase/N-iso-butoxycarbonyl-2,3-dimethylmaleinimide 1/320
# [5] = molar ratio Pfu/N-etoxycarbonyl-2,3-dimethylmaleinimide 1/200
# [6] = molar ratio Pfu/N-etoxycarbonyl-2,3-dimethylmaleinimide 1/800
Molecule,Activity at 70° C. (%) After 10 min. preheating at 95° C. (Taq DNA polymerase; [1]),Activity at 70° C. (%) Without preheating at 95° C. (Taq DNA polymerase; [1]),Activity at 70° C. (%) After 10 min. preheating at 95° C. (Taq DNA polymerase; [2]),Activity at 70° C. (%) Without preheating at 95° C. (Taq DNA polymerase; [2]),Activity at 70° C. (%) After 10 min. preheating at 95° C. (Taq DNA polymerase; [3]),Activity at 70° C. (%) Without preheating at 95° C. (Taq DNA polymerase; [3]),Activity at 70° C. (%) After 10 min. preheating at 95° C. (Taq DNA polymerase; [4]),Activity at 70° C. (%) Without preheating at 95° C. (Taq DNA polymerase; [4]),Activity at 50° C. (%) After 10 min. preheating at 95° C. (Pfu DNA polymerase; [5]),Activity at 50° C. (%) Without preheating at 95° C. (Pfu DNA polymerase; [5]),Activity at 72° C. (%) After 10 min. preheating at 95° C. (Pfu DNA polymerase; [5]),Activity at 50° C. (%) After 10 min. preheating at 95° C. (Pfu DNA polymerase; [6]),Activity at 50° C. (%) Without preheating at 95° C. (Pfu DNA polymerase; [6]),Activity at 72° C. (%) After 10 min. preheating at 95° C. (Pfu DNA polymerase; [6])
"Taq DNA polymerase treated with N-iso-butoxycarbonyl-2,3-dimethylmaleinimide: Recombinant Taq DNA polymerase modified with N-isobutoxycarbonyl-2,3-dimethylmaleinimide in aqueous solution, molar ratios 1/40 to 1/320",~90%,~50%,~100%,~40%,~80%,~30%,~40%,~10%,,,,,,
B1,,,,,,,,,~100%,~20%,~100%,~100%,~0%,~90%
